In test [1] the target is canine MHC Class I DLA-12 antigen (canine (Canis lupus familiaris)). Description: flow cytometry on cells of CLBL-1 xenograft tumours (PBS group) [B].
Test [2] shares this target. Description: flow cytometry on canine PBMCs [E].

Among the data in patent US20240132595A1 are FL1-H (percent of cells in the positive gate), FITC-H subset (percent of cells in the positive gate) and FITC-A (percent of cells in the positive gate) values, retold here.

B1: cLy-m10C5 (antibody, V domains shown)
VH: EVQLQQSGPELVKPGASVKISCKASGYTFTDYNMHWVKQSHGKSLEWIGYIYPYNGGTDYNQKFKSKATLTVDNSSSTAYMELRSLTSDDSTVYYCARGGLVGAMDYWGQGTSVTVSS
VL: DIQMTQSPASLSASVGETVTITCRASGNIHNSLAWYQQKQGKSPQLLVYNAKTLPDGVPSRFSGSGSGTQYSLKINSLQPEDFGSYYCQHFWSIPWTFGGGTKLEIK
In test [1], B1 registered an FL1-H (percent of cells in the positive gate) of 89.4%. This molecule also showed an FITC-H subset (percent of cells in the positive gate) in test [2] of 59.4%.

B2: cLy-c10C5 (antibody, V domains shown)
VH: EVQLQQSGPELVKPGASVKISCKASGYTFTDYNMHWVKQSHGKSLEWIGYIYPYNGGTDYNQKFKSKATLTVDNSSSTAYMELRSLTSDDSTVYYCARGGLVGAMDYWGQGTSVTVSS
VL: DIQMTQSPASLSASVGETVTITCRASGNIHNSLAWYQQKQGKSPQLLVYNAKTLPDGVPSRFSGSGSGTQYSLKINSLQPEDFGSYYCQHFWSIPWTFGGGTKLEIK
In turn, B2 registered an FITC-A (percent of cells in the positive gate) in test [1] of 98.7%.
